{"source": "paper PMC12732654", "about": "“Thermodynamic Profiling Reveals DNA Polymerase Template Binding, Substrate Incorporation, and Exonuclease Function”", "key": {"[1]": {"target": "T1, SS_01 (engineered Phi29 DNA polymerase) (bacteriophage Phi29 (engineered; …, UniProt P03680 1-575, M97K;A484E;K512Y)", "T1 sequence": "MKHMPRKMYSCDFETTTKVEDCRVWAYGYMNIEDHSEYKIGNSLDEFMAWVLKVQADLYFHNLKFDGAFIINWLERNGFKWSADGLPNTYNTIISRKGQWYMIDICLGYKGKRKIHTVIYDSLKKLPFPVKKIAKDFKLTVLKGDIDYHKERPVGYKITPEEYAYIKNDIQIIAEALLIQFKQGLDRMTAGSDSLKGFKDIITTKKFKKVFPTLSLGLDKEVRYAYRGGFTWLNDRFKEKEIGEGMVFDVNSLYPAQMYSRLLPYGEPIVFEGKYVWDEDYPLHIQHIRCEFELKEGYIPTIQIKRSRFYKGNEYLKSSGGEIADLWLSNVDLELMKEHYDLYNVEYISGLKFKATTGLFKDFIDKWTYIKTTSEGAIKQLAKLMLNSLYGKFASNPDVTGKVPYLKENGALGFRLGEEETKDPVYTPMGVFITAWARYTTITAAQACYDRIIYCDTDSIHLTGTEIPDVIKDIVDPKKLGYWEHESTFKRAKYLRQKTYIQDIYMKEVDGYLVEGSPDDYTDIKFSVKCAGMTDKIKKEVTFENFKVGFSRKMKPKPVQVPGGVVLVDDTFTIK", "experiment": "EMSA; 1 mM Mg2+; ITC: 1x PBS pH 7.5, 0.01% BSA, 0.05% Tween-20, with no metal, 1 mM MgCl2 or 1 mM CaCl2, 25 C, 5 uM SS_01; EMSA: 20 mM HEPES pH 7.5, 4 mM DTT, 1 mM metal chloride, 30 C 30 min, 100 nM DNA, 10 nM polymerase", "details": "protein: recombinant; hairpin, self-primed template"}, "[2]": {"target": "T1, SS_01 (engineered Phi29 DNA polymerase)", "experiment": "ITC; 1 mM Ca2+; ITC: 1x PBS pH 7.5, 0.01% BSA, 0.05% Tween-20, with no metal, 1 mM MgCl2 or 1 mM CaCl2, 25 C, 5 uM SS_01; EMSA: 20 mM HEPES pH 7.5, 4 mM DTT, 1 mM metal chloride, 30 C 30 min, 100 nM DNA, 10 nM polymerase", "details": "protein: recombinant; 63 bp duplex, 5' overhang 7 nt on the 70-mer template"}, "[3]": {"target": "T1, SS_01 (engineered Phi29 DNA polymerase)", "experiment": "ITC; no Mg2+; 10 uM DNA into 5 uM protein; ITC: 1x PBS pH 7.5, 0.01% BSA, 0.05% Tween-20, with no metal, 1 mM MgCl2 or 1 mM CaCl2, 25 C, 5 uM SS_01; EMSA: 20 mM HEPES pH 7.5, 4 mM DTT, 1 mM metal chloride, 30 C 30 min, 100 nM DNA, 10 nM polymerase", "details": "protein: recombinant; 63 bp duplex, 5' overhang 7 nt on the 70-mer template"}, "[4]": {"target": "T1, SS_01 (engineered Phi29 DNA polymerase)", "experiment": "ITC; 1 mM Mg2+; 10 uM DNA into 5 uM protein; ITC: 1x PBS pH 7.5, 0.01% BSA, 0.05% Tween-20, with no metal, 1 mM MgCl2 or 1 mM CaCl2, 25 C, 5 uM SS_01; EMSA: 20 mM HEPES pH 7.5, 4 mM DTT, 1 mM metal chloride, 30 C 30 min, 100 nM DNA, 10 nM polymerase", "details": "protein: recombinant; 63 bp duplex, 5' overhang 7 nt on the 70-mer template"}, "[5]": {"target": "T1, SS_01 (engineered Phi29 DNA polymerase)", "experiment": "ITC; 1 mM Mg2+ (Mg2+/Ca2+ comparison set); ITC: 1x PBS pH 7.5, 0.01% BSA, 0.05% Tween-20, with no metal, 1 mM MgCl2 or 1 mM CaCl2, 25 C, 5 uM SS_01; EMSA: 20 mM HEPES pH 7.5, 4 mM DTT, 1 mM metal chloride, 30 C 30 min, 100 nM DNA, 10 nM polymerase", "details": "protein: recombinant; 63 bp duplex, 5' overhang 7 nt on the 70-mer template"}, "[6]": {"target": "T1, SS_01 (engineered Phi29 DNA polymerase)", "experiment": "ITC; Ca2+; exothermic, smaller heat than Mg2+; ITC: 1x PBS pH 7.5, 0.01% BSA, 0.05% Tween-20, with no metal, 1 mM MgCl2 or 1 mM CaCl2, 25 C, 5 uM SS_01; EMSA: 20 mM HEPES pH 7.5, 4 mM DTT, 1 mM metal chloride, 30 C 30 min, 100 nM DNA, 10 nM polymerase", "details": "protein: recombinant; single strand"}}, "data": [{"binder": "Seq99A hairpin primed template (structured_DNA) DNA: TTTTTGCGCTCGAGATCTCCGTAAGGAGATCTCGAGCGCGGGACTACTACTGGGATCATCATAGCCACCTCAGCTGCACGTAAGTGCAGCTGAGGTGGC", "values": [{"measurement": "binding result", "setting": "[1]", "value": "binds"}]}, {"binder": "63/70-mer primed template (dsDNA, three consecutive phosphorothioates at 3' terminus of 63-mer) DNA 1: TACGCAGCGTACATGCTCGTGACTGGGATAACCGTGCCGTTTGCCGACTTTCGCAGCCGTCCA DNA 2: AAACCCTTGGACGGCTGCGAAAGTCGGCAAACGGCACGGTTATCCCAGTCACGAGCATGTACGCTGCGTA", "values": [{"measurement": "Kd", "setting": "[2]", "value": "317 ± 75.2", "unit": "nM"}, {"measurement": "Kd", "setting": "[3]", "value": "129 ± 9.46", "unit": "nM"}, {"measurement": "Kd", "setting": "[4]", "value": "243 ± 80.5", "unit": "nM"}, {"measurement": "Kd", "setting": "[5]", "value": "239 ± 68.2", "unit": "nM"}]}, {"binder": "TCCTAACGAGATTAGTTTTGCTGTT (ssDNA)", "note": "[unmodified oligonucleotide (non-PS)]", "values": [{"measurement": "binding result", "setting": "[6]", "value": "binds"}]}]}
